Test in all cases: EMSA
In general terms: In EMSA bound probe runs differently from free probe, usually more slowly.

For one data set, the target named is T1, BcnI H219Q (UniProt Q8RNV8 1-238, H219Q).
T1 sequence: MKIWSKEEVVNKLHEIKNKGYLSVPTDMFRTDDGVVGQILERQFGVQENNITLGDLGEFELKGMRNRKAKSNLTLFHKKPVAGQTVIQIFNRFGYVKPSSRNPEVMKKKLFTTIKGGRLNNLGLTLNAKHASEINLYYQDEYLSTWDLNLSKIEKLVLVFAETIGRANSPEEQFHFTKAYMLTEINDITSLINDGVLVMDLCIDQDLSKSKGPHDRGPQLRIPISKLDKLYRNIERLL

A further data set has as its target T2, BcnI wt (UniProt Q8RNV8 1-238).
T2 sequence: T1 sequence with Q219H

A further data set addresses T3, BcnI H77N (UniProt Q8RNV8 1-238, H77N).
T3 sequence: T1 sequence with H77N, Q219H

The next data set deals with T4, BcnI H219N (UniProt Q8RNV8 1-238, H219N).
T4 sequence: T1 sequence with Q219N

In the next data set the target is T5, BcnI H77N+H219N (UniProt Q8RNV8 1-238, H77N;H219N).
T5 sequence: T1 sequence with H77N, Q219N

For the next data set, the target named is T6, BcnI H77A (UniProt Q8RNV8 1-238, H77A).
T6 sequence: T1 sequence with H77A, Q219H

The target of a further data set is T7, BcnI H77A+H219N (UniProt Q8RNV8 1-238, H77A;H219N).
T7 sequence: T1 sequence with H77A, Q219N

Where a chain is given by its changes, count along the chain named.

B1: CG oligoduplex (cognate) (dsDNA)
DNA 1: CGCACGACTTCCCGGAAGAGCACGC
DNA 2: GTTGCGTGCTCTTCCGGGAAGTCGTGCG
What is called Kd is a measure of binding affinity in units of concentration. A high value points to a looser complex. Take B1: the Kd in the data set with BcnI H219Q worked out at 0.6 nM; in the data set with BcnI wt, 0.5 nM; with BcnI H77N, 0.3 nM; in the data set with BcnI H219N, 0.4 nM; with BcnI H77N+H219N, 20 nM; with BcnI H77A, 0.25 nM. This molecule gave a Kd with BcnI H77A+H219N of 0.5 nM.

B2: TA oligoduplex (miscognate) (dsDNA)
DNA 1: CGCACGACTTCCTGGAAGAGCACGC
DNA 2: GTTGCGTGCTCTTCCAGGAAGTCGTGCG
Turning to B2, in the data set with BcnI H77A, binding was put at a Kd of 25 nM.

These data come from article PMC3089477.
